{"source": "patent US20170119790A1", "about": "“Agents, Uses and Methods” (CYTOGUIDE A/S, priority 2009, published 2017)", "molecules": {"B1": {"name": "MAC2-158: anti-human CD163 murine mAb, binds SRCR domain 1, IQ Products; VH SEQ ID NO: 1, VL SEQ ID NO: 2 (antibody, V domains shown)", "VH": "DVQLQESGPGLVKPSQSLSLTCTVTGYSITSDYAWNWIRQFPGNKLEWMGYITYSGITNYNPSLKSQISITRDTSKNQFFLQLNSVTTEDTATYYCVSGTYYFDYWGQGTTLTVSS", "VL": "SVVMTQTPKSLLISIGDRVTITCKASQSVSSDVAWFQQKPGQSPKPLIYYASNRYTGVPDRFTGSGYGTDFTFTISSVQAEDLAVYFCGQDYTSPRTFGGGTKLEIKRA", "modifications": "Mac2-158 VH; Mac2-158 VL"}}, "key": {"CD163": {"molecular_target": "CD163 (Homo sapiens, UniProt Q86VB7)", "sequence (Q86VB7 42-1156)": "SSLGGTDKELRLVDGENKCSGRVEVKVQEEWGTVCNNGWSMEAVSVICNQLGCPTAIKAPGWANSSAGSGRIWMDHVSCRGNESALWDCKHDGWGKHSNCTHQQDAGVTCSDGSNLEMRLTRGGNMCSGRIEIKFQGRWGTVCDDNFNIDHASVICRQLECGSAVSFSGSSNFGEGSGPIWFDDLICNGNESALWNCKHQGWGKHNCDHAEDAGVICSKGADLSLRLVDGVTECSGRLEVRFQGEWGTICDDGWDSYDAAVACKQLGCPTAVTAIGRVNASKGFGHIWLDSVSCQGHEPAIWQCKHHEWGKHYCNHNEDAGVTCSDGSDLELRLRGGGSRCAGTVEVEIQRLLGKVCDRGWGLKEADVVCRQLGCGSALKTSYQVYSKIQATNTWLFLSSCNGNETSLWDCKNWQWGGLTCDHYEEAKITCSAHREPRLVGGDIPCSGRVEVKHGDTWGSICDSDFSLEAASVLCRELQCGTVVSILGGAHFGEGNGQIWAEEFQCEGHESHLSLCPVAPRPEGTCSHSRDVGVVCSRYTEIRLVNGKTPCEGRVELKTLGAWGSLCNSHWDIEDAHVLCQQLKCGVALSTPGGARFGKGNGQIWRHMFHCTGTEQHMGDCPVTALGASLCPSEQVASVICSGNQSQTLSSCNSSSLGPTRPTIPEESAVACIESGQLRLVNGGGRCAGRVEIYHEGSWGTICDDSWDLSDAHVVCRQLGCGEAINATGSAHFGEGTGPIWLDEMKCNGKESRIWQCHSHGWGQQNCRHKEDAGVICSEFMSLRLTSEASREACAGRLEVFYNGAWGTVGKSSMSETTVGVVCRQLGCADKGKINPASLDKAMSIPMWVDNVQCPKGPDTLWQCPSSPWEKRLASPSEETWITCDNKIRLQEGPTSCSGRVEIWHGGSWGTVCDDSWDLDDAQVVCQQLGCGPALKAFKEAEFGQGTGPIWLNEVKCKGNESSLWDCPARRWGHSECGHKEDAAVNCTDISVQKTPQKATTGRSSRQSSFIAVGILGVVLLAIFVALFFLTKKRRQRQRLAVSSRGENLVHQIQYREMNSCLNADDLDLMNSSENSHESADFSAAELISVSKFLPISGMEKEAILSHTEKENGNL", "assay": "Surface plasmon resonance (Biacore) analysis of mAb binding to immobilized CD163", "description": "(§1) SPR analysis of the binding of mAbs to CD163 was carried out on a Biacore 2000 instrument (Biacore, Uppsala, Sweden). The Biacore sensor chips (type CM5) were activated with a 1:1 mixture of 0.2 M N-ethyl-N′-(3-dimethylaminopropyl) carbodiimide and 0.05 M N-hydroxysuccimide in water. Purified recombinant CD163 were immobilized in 10 mM sodium acetate, pH 4.0, and the remaining binding sites were blocked with 1 M ethanolamine, pH 8.5. The SPR signal generated from immobilized recombinant CD163 proteins corresponded to 40-70 fmol of protein/mm^2. Sensorgrams were generated using mAb concentrations ranging from 5-100 nM. The flow cells were regenerated with 1.6 M glycine-HCl, pH 3. The running buffer used for the experiment was either CaHBS 10 mM Hepes, 150 mM NaCl, 3.0 mM CaCl2, 1.0 mM EGTA, and 0.005% Tween 20, […], and 0.005% Tween 20, pH 7.4, mAb samples were dissolved in the same buffer as the running buffer used. All binding data were analyzed using the Biamolecular Interaction Analysis evaluation program version 3.1.\nas §1, with “7.4, KN2/NRY and Mac-158” for “7.4, mAb”, “buffer used at a concentration of 5 μg/ml.” for “buffer used.”"}, "[1]": {"molecular_target": "T1, human CD163 LKIHEK containing mutants (VKVQEE-->LKIHEK and double mutant) (Homo sapiens, UniProt Q86VB7, E71K/Q69H/V66L/V68I)", "T1 construct": "a pcDNA5-FRT-humanCD163 plasmid harboring the full length human CD163 cDNA; expressed in transfected cells; host or cells: HEK 293, transient", "T1 sequence (Q86VB7 42-1156 V66L/V68I/Q69H/E71K)": "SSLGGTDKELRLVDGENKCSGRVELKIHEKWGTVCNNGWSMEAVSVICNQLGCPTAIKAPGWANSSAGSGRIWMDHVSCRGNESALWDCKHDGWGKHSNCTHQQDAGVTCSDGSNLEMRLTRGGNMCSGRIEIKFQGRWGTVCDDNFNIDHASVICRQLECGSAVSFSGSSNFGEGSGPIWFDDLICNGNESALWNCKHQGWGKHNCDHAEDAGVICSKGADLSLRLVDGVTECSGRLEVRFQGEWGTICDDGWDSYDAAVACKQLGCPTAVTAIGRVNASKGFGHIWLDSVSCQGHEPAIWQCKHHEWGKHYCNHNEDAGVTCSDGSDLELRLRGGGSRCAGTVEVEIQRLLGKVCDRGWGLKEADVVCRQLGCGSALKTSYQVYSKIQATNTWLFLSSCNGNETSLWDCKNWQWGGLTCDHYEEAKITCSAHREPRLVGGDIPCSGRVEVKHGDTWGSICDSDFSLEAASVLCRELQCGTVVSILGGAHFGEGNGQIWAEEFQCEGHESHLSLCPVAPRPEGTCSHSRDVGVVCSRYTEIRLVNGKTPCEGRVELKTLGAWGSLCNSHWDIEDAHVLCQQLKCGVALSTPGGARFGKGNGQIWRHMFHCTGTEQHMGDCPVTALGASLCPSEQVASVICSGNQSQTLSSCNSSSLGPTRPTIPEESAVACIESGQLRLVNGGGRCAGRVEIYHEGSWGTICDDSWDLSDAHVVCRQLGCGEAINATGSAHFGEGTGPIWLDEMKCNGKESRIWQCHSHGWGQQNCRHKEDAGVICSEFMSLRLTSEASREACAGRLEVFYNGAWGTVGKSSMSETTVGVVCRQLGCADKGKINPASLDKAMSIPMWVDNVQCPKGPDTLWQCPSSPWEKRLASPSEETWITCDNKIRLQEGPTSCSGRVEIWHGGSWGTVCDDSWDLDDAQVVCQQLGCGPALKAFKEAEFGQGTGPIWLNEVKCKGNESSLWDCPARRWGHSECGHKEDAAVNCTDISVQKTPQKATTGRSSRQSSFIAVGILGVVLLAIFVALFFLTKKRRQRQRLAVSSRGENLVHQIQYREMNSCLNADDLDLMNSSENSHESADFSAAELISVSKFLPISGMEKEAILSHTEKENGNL", "assay": "Western blotting of human CD163 and knock out mutants", "type": "binding", "excerpt": "(§2) For the mutant generation the Site-directed Ligation Independent Mutagenesis (SLIM) method was used (1). Primers are listed in the primer table. The template for the generation of the two first mutants was a pcDNA5-FRT-humanCD163 plasmid harboring the full length human CD163 cDNA. The primers LKI FT, RT, F, and R were used to generate the mutant plasmid pcDNA5-FRT-humanCD163 (VKVQEE-->LKIHEK). The primers R60D FT, RT, F, and R were used to generate the mutant plasmid pcDNA5-FRT-humanCD163 (R60D). Generation of a double mutant was done by performing a SLIM reaction on pcDNA5-FRT-humanCD163 (VKVQEE-->LKIHEK) with the primers R60D FT, RT, F, and R.\n(§3) Each cell pellet was added 1 ml lysis buffer (10 mM Tris pH 8, 140 mM NaCl, 15 mM MgSO4, 1% Triton X-100) and incubated for 15 min at 4 °C with rotation. After centrifugation for 30 min at 6000 rpm the supernatants were sterile filtered.\n(§4) 90 μl of each of the supernatants were added 30 μl of 4×LDS sample buffer. 3×20 μl samples of each supernatant and 8 μl SeeBlue plus2 prestained marker were loaded on NuPage 4-12% Bis-Tris-Gels (Invitrogen, Taastrup, Denmark) and the SDS-PAGEs were run with MOPS running buffer according to instructions of the manufacturer (200 V constant for 50 min). Blotting to PVDF membranes (Invitrogen, Taastrup, Denmark) was done on an iBLOT device according to instructions of the manufacturer. […]"}, "human CD163 R60D": {"molecular_target": "T2, human CD163 R60D (Homo sapiens, UniProt Q86VB7, R112D)", "T2 construct": "a pcDNA5-FRT-humanCD163 plasmid harboring the full length human CD163 cDNA; expressed in transfected cells; host or cells: HEK 293, transient", "T2 sequence (Q86VB7 42-1156 R112D)": "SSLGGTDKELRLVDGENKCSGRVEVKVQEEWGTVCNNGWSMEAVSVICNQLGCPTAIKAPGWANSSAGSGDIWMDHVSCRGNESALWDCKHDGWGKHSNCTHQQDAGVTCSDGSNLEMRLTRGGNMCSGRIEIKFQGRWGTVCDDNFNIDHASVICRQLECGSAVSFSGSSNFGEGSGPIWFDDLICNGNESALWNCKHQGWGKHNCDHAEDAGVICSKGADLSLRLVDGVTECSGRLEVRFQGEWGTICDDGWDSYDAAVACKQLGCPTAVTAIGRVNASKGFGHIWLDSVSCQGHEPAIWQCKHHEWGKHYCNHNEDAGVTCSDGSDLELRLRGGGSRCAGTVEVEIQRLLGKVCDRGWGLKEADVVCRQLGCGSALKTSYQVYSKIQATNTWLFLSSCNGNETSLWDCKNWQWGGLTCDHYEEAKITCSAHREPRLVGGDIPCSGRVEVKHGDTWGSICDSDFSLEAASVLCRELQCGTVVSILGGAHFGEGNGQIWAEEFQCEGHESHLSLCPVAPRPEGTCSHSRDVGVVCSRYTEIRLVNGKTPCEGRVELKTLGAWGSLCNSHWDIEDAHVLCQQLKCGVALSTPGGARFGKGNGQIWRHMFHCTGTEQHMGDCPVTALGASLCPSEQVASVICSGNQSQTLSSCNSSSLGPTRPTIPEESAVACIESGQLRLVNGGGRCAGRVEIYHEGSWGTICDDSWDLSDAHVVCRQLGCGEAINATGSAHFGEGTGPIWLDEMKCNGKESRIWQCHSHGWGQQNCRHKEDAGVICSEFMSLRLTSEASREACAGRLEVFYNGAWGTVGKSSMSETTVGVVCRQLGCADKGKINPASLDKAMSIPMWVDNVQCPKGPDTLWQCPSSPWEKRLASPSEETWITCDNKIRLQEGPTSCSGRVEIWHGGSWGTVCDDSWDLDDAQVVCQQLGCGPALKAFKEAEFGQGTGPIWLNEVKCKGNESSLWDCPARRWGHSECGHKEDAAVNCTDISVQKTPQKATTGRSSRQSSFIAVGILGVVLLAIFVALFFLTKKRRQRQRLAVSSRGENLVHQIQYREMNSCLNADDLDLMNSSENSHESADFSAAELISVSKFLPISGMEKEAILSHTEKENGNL", "assay": "Western blotting of human CD163 and knock out mutants", "type": "binding", "excerpt": "as §2, §3, §4"}}, "data": [{"molecule": "B1", "values": [{"measurement": "affinity for human CD163 immobilized on a Biacore chip", "setting": "CD163; KN2/NRY compared with Mac2-158, 5 μg/ml, FIG. 19", "result": "Virtually similar affinities"}, {"measurement": "strength of binding to CD163 in Biacore studies", "setting": "CD163; comparison between mAbs", "result": "high affinity"}, {"measurement": "affinities for CD163", "setting": "CD163; in both 2 mM free Ca2+ and 10 mM EDTA", "result": "nanomolar or sub-nanomolar range"}, {"measurement": "calcium dependence of binding activity in SPR-analysis", "setting": "CD163; with/without calcium", "result": "binding activity regardless extracellular levels of calcium"}, {"measurement": "binding in western blot", "setting": "[1]", "result": "No binding was detected"}, {"measurement": "binding in western blot", "setting": "human CD163 R60D", "result": "very weak"}]}]}
